These results are taken from patent US20120213794A1 (published 2012).

Where a chain is given by its changes, count along the chain named.

First the molecules themselves.
B1: AX211 IgG2 (antibody, V domains shown)
VH: QVQLLESGGGLVQPGGSLRLSCKASGYTFSRQGFTWVRQAPGKGLEWIGWIDPGNGGTRYNEKFKGKATISRDNSKNTLYLQMNSLRAEDTAVYYCARYRVGYSLDYWGQGTLVTVSS
VL: EIVLTQSPATLSLSPGERATITCRASQYVGSYLNWYQQKPGQAPRLLIYDASNRATGIPARFSGSGSGTDFTLTISSLEPEDFAVYYCQVWDSSPPVVFGGGTKVEIK
B2: AX213 IgG2 (antibody, V domains shown)
VH: B1 VH with Q1E, Q32Y, F34I, T35N, W50R, Y99A, R100N, V101D, L105F
VL: EIVLTQSPATLSLSPGERATITCRASQYVGSYLNWYQQKPGQAPRLLIYDASNRATGIPARFSGSGSGTDFTLTISSLEPEDFAVYYCQVWDSSPPVVFGGGTKVEIKR
B3: AX212 IgG2 (antibody, V domains shown)
VH: B1 VH with R31S, Q32Y, G33S, T35S, W50Y, N55S, R59K, E62Q, K65Q, Y99Q
VL: B1 VL
B4: AX210 IgG2 (antibody, V domains shown)
VH: B1 VH with R31S, Q32Y, G33S, F34I, T35Y, E62Q, K65Q, G66S, Y99A
VL: B1 VL
B5: AX114 IgG2 (antibody, V domains shown)
VH: EVQLLESGGGLVQPGGSLRLSCKASGYTFSSYGMYWVRQAPGKGLEWIGWIDPGSGGTKYNEKFKGKATISRDNSKNTLYLQMNSLRAEDTAVYYCARERYGYYFDYWGQGTLVTVSS
VL: B1 VL with S31T, V98A

human PCSK9 (proprotein convertase subtilisin-kexin type 9), wild type, sequence (Q8NBP7 31-692): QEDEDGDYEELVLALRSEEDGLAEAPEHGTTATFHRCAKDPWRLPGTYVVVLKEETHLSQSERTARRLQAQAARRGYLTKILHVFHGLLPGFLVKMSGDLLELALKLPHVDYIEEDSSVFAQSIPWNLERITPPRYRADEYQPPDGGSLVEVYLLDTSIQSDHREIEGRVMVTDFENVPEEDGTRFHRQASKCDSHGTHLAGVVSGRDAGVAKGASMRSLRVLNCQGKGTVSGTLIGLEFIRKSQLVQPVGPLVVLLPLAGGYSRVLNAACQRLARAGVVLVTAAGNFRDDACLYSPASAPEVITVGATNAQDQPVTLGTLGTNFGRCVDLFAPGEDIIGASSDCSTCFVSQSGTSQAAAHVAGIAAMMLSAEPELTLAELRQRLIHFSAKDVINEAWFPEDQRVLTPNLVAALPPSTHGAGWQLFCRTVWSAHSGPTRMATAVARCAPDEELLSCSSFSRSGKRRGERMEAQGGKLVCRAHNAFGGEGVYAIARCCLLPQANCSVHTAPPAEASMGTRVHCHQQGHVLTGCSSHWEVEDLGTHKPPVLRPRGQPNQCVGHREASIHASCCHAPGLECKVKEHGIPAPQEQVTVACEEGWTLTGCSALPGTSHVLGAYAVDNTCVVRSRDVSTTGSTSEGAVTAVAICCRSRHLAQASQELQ

The test concerns the target human PCSK9 (proprotein convertase subtilisin-kexin type 9), wild type (UniProt Q8NBP7 31-692). Description: TR-FRET PCSK9-LDLR interaction inhibition.
B1 registered an IC50 of 4.8 nM. This lies in the single-digit nanomolar range.

Regarding B2, inhibition was half-maximal at 4.9 nM (IC50).

Molecule B3 had an IC50 of 3.9 nM.

In turn, B4 showed an IC50 of 4.9 nM.

Regarding B5, the IC50 came to 5.9 nM.
